Laboratory results taken from US20120244226A1, “TREATMENT COMPOSITION AND METHOD” (DEC INTERNATIONAL NZ LIMITED, priority 2009, published 2012).

Assays:
[1] = WO 2008/009798, cited from earlier work
[2] = test system: tumor necrosis factor-α (TNF-α) produced by LPS activated neutrophils; assay: TNF-α production by LPS activated neutrophils (ELISA); format: cell-based, rat; details: for TNF-α % Inhibition: relative to LPS only control
Experimental: (§1) The anti-inflammatory properties of the cationic fraction, IDP, and the combination of IDP with chondroitin and glucosamine were determined by measuring their ability to inhibit the production of the inflammatory compounds, tumor necrosis factor-α (TNF-α) and interleukin-6 (IL-6) produced by LPS activated neutrophils. […] Neutrophils were isolated from rat blood and incubated in the presence of LPS. LPS is derived from bacterial cell walls and is used to mimic a 'bacterial infection'. […] Two of these cytokine are TNF-α and IL-6. The concentrations of both cytokines produced by neutrophils exposed to LPS and the various test substances are summarised graphically in FIGS. 1 and 2 respectively. […] Aliquots from each set of triplicates were combined, and duplicates assayed for cytokine concentrations. The plate blank was subtracted from each individual data point. A VersaMax 96-well plate reader was used to colorimetrically assess the production of TNF-α and IL-6 as determined by the ELISA, using Rat TNF-α ELISA kit, R&D Systems, Cat # RTA00, and Rat IL-6 ELISA kit, R&D Systems, Cat # […]. The average cytokine concentration, standard deviation and standard error were calculated for each data set (sample and concentration). Preliminary statistical significance was assessed using independent Student t-tests at α≦0.05.

[3] = test system: interleukin-6 (IL-6) produced by LPS activated neutrophils; assay: IL-6 production by LPS activated neutrophils (ELISA); format: cell-based, rat; details: for IL-6 % Inhibition: relative to LPS only control
Experimental: as §1

Row | Molecule | anti-inflammatory activity of the composition on its own [1] | anti-inflammatory activity compared with glucosamine and chondroitin sulphate alone ([1]; combined with glucosamine and chondroitin sulphate) | TNF-α ([2]; 1 μg/ml) | TNF-α % Inhibition ([2]; 1 μg/ml) | TNF-α ([2]; 10 μg/ml) | TNF-α % Inhibition ([2]; 10 μg/ml) | TNF-α ([2]; 100 μg/ml) | TNF-α % Inhibition ([2]; 100 μg/ml) | stimulation of TNF-α levels ([2]; highest concentration tested) | effect on TNF-α, in words ([2]; lowest concentrations tested) | effect on TNF-α, in words ([2]; over the concentrations tested) | IL-6 ([3]; 1 μg/ml) | IL-6 % Inhibition ([3]; 1 μg/ml) | IL-6 ([3]; 10 μg/ml) | IL-6 % Inhibition ([3]; 10 μg/ml) | IL-6 ([3]; 100 μg/ml) | IL-6 % Inhibition ([3]; 100 μg/ml) | stimulation of IL-6 levels ([3]; highest concentration tested) | effect on IL-6, in words ([3]; lowest concentrations tested) | effect on IL-6, in words ([3]; over the concentrations tested)
1 | pure lactoferrin (90%): composition 1 of WO 2008/009798: pure lactoferrin (90%) (protein, UniProt P24627 20-708, looked up, 90% pure preparation) Lactotransferrin: APRKNVRWCTISQPEWFKCRRWQWRMKKLGAPSITCVRRAFALECIRAIAEKKADAVTLDGGMVFEAGRDPYKLRPVAAEIYGTKESPQTHYYAVAVVKKGSNFQLDQLQGRKSCHTGLGRSAGWIIPMGILRPYLSWTESLEPLQGAVAKFFSASCVPCIDRQAYPNLCQLCKGEGENQCACSSREPYFGYSGAFKCLQDGAGDVAFVKETTVFENLPEKADRDQYELLCLNNSRAPVDAFKECHLAQVPSHAVVARSVDGKEDLIWKLLSKAQEKFGKNKSRSFQLFGSPPGQRDLLFKDSALGFLRIPSKVDSALYLGSRYLTTLKNLRETAEEVKARYTRVVWCAVGPEEQKKCQQWSQQSGQNVTCATASTTDDCIVLVLKGEADALNLDGGYIYTAGKCGLVPVLAENRKSSKHSSLDCVLRPTEGYLAVAVVKKANEGLTWNSLKDKKSCHTAVDRTAGWNIPMGLIVNQTGSCAFDEFFSQSCAPGADPKSRLCALCAGDDQGLDKCVPNSKEKYYGYTGAFRCLAEDVGDVAFVKNDTVWENTNGESTADWAKNLNREDFRLLCLDGTRKPVTEAQSCHLAVAPNHAVVSRSDRAAHVKQVLLHQQALFGKNGKNCPDKFCLFKSETKNLLFNDNTECLAKLGGRPTYEEYLGTEYVTAIANLKKCSTSPLLEACAFLTR | Neither of these compositions showed significant anti-inflammatory activity | significantly better |  |  |  |  |  |  |  |  |  |  |  |  |  |  |  |  |  | 
2 | Lactoferrin: milk immune defence protein (P24627), tested on its own (protein, UniProt P24627 20-708, looked up) Lactotransferrin: APRKNVRWCTISQPEWFKCRRWQWRMKKLGAPSITCVRRAFALECIRAIAEKKADAVTLDGGMVFEAGRDPYKLRPVAAEIYGTKESPQTHYYAVAVVKKGSNFQLDQLQGRKSCHTGLGRSAGWIIPMGILRPYLSWTESLEPLQGAVAKFFSASCVPCIDRQAYPNLCQLCKGEGENQCACSSREPYFGYSGAFKCLQDGAGDVAFVKETTVFENLPEKADRDQYELLCLNNSRAPVDAFKECHLAQVPSHAVVARSVDGKEDLIWKLLSKAQEKFGKNKSRSFQLFGSPPGQRDLLFKDSALGFLRIPSKVDSALYLGSRYLTTLKNLRETAEEVKARYTRVVWCAVGPEEQKKCQQWSQQSGQNVTCATASTTDDCIVLVLKGEADALNLDGGYIYTAGKCGLVPVLAENRKSSKHSSLDCVLRPTEGYLAVAVVKKANEGLTWNSLKDKKSCHTAVDRTAGWNIPMGLIVNQTGSCAFDEFFSQSCAPGADPKSRLCALCAGDDQGLDKCVPNSKEKYYGYTGAFRCLAEDVGDVAFVKNDTVWENTNGESTADWAKNLNREDFRLLCLDGTRKPVTEAQSCHLAVAPNHAVVSRSDRAAHVKQVLLHQQALFGKNGKNCPDKFCLFKSETKNLLFNDNTECLAKLGGRPTYEEYLGTEYVTAIANLKKCSTSPLLEACAFLTR |  |  | 226.19 pg/mL | 17.9% | 242.58 pg/mL | 11.9% | 325.95 pg/mL | −18.4% | 18% | no statistically significant effect | appeared not to act as anti-inflammatory | 197.88 pg/mL | 33.3% | 269.86 pg/mL | 9.1% | 441.09 pg/mL | −48.6% | 48% | no statistically significant effect | appeared not to act as anti-inflammatory
